Where no end group is shown, it is not given here. [ ]: non-standard residue; d: D form. FAM = 5-(and 6-)carboxyfluorescein; resin = not defined here; Ahx = NCCCCCC(=O)O
Legend:
[1] = target: T1, memapsin 2 (spontaneously activated promemapsin 2-T1; amino acids 43-456 and 45-456 of SEQ ID NO: 8) (human, UniProt P56817 41-454); assay: inhibition of cleavage of a fluorogenic substrate
T1 construct: also called Mep2; M2

[2] = target: T1, memapsin 2 (spontaneously activated …); assay: inhibition of cleavage of fluorogenic substrate FS-2
[3] = target: T2, memapsin 1 (amino acid residues 58-461 of SEQ ID NO: 4) (Homo sapiens (Human), UniProt Q9Y5Z0 63-466); assay: as above
T2 construct: also called Mep1; M1
T2 sequence: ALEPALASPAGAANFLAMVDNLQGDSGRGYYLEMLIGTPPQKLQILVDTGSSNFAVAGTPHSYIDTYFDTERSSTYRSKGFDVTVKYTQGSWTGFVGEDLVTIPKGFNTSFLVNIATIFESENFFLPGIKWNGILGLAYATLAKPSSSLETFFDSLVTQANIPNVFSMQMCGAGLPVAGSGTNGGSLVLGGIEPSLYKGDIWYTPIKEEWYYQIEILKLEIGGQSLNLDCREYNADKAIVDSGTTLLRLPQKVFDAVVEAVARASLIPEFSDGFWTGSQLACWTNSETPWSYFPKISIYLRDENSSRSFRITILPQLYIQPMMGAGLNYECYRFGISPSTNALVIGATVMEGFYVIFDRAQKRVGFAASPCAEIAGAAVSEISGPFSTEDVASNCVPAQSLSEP

[4] = target: T2, memapsin 1 (amino acid residues 58-461 …); assay: ratio of Ki apparent for memapsin 1 to that for memapsin 2
[5] = target: T1, memapsin 2 (spontaneously activated …); assay: bead library probed with 4 nM memapsin 2, OM99-2 wash, anti-memapsin 2 IgG and alkaline phosphatase staining
[6] = target: T1, memapsin 2 (spontaneously activated …); assay: kinetic inhibition of memapsin 2, fluorogenic substrate

T1 sequence (P56817 41-454 Q214G): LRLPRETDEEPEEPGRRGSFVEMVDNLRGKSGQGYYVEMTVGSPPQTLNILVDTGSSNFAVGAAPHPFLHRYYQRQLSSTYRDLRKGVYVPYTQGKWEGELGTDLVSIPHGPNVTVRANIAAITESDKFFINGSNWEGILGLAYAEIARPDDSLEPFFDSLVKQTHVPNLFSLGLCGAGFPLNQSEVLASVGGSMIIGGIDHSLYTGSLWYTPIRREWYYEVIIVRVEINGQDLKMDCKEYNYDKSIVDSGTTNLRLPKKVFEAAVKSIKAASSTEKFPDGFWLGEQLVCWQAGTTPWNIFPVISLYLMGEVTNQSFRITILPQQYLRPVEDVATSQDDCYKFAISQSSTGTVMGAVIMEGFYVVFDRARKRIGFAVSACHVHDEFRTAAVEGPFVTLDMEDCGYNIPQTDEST

B1: OM00-3 (ELDL*AVEF; Glu-Leu-Asp-Leu*Ala-Val-Glu-Phe) (peptide)
peptide: ELDLAVEF
modifications: numbers in words are those of the source; also: Leu4*Ala5: hydroxyethylene transition-state isostere -CH(OH)-CH2- replaces the peptide bond
**Q.** B1 was tested. Which Ki [1] did it give?
**A.** 0.31 nM

**Q.** And the “fold improvement of Ki relative to OM99-2” value [1]?
**A.** 5.2 fold

**Q.** What about the “fold lower Ki than OM99-2” value [1] of the same binder?
**A.** ~5 fold

**Q.** What about the Ki apparent [2] of the same binder?
**A.** 0.31 nM

**Q.** And the Ki apparent [3]?
**A.** 0.18 nM

**Q.** And the “Ki apparent (M1/M2)” value [4]?
**A.** 0.59

B2: library bead Gly-Ile-Asp-Leu*Ala-Ala-Gln-Phe-Arg-Met-Gly-Gly-resin (peptide)
peptide: GIDLAAQFRMGG-resin
modifications: reading uncertain; also: hydroxyethylene isostere between Leu4 and Ala5, printed as Gly-Ile-Asp-Leu*Ala-Ala-Gln-Phe-Arg-Met-Gly-Gly-resin
**Q.** Does B2 bind [5]?
**A.** binds

B3: CPI-1: FAM-Ahx-(EVNL*AAEF)-G-([…]) (peptide)
peptide: {FAM-Ahx}-EVNLAAEFGYGRKKRRQRRR
modifications: numbers in words are those of the source; also: Leu4*Ala6: hydroxyethylene isostere -CH(OH)-CH2- replaces the amide bond
notes: OM99-2 joined through Gly to HIV tat residues 47-57; also called Fs[OM99-2]tat
**Q.** With B3 as the binder, how does the Ki apparent [6] read?
**A.** 39 nM

B4: CPI-2: FAM-Ahx-(ELDL*AVEF)-GG-(RRRRRRRRR) (peptide)
peptide: {FAM-Ahx}-ELDLAVEFGG[dR][dR][dR][dR][dR][dR][dR][dR][dR]
modifications: numbers in words are those of the source; also: Leu4*Ala6: hydroxyethylene isostere -CH(OH)-CH2- replaces the amide bond
notes: OM00-3 joined through Gly-Gly to nine D-arginines
**Q.** B4 was tested. Which Ki apparent [6] did it give?
**A.** 58 nM

B5: CPI-3: (ELDL*AVEF)-GG-(RRRRRRRRR) (peptide)
peptide: ELDLAVEFGG[dR][dR][dR][dR][dR][dR][dR][dR][dR]
modifications: numbers in words are those of the source; also: Leu4*Ala6: hydroxyethylene isostere -CH(OH)-CH2- replaces the amide bond
**Q.** How did the Ki [6] turn out when B5 was run?
**A.** 35 nM

From patent US20100267609A1 (OKLAHOMA MEDICAL RESEARCH FOUNDATION, published 2010)
